Assay [1] concerns the target T1, EC3-deleted human CDH6 (EC3 deletion mutant, on cells) (human, UniProt P55285 54-790).
T1 construct: Full-length human CDH6 lacking EC3; Cloned in p3xFLAG-CMV-9; also called EC3-deleted hCDH6
T1 sequence: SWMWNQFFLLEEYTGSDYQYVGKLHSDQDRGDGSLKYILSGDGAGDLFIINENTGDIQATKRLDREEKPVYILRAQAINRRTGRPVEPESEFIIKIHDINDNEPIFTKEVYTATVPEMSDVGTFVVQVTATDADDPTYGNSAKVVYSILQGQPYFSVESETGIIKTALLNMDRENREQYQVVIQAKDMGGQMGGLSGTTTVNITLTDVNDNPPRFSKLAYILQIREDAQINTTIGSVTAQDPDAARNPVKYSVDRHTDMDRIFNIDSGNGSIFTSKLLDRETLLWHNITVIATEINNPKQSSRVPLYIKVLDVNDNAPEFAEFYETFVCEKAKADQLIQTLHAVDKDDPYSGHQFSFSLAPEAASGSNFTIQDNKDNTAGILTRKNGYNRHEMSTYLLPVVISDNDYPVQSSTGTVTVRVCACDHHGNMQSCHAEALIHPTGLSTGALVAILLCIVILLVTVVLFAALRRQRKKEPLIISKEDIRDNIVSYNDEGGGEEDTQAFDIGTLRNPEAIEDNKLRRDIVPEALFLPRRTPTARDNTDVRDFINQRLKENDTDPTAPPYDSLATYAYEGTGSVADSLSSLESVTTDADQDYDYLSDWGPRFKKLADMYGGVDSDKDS
The assay can be described thus: flow cytometry, 293α cells transiently expressing EC3-deleted hCDH6 (open) against untransfected cells (shaded), anti-rat IgG-FITC [4]. How it is done: The cells were cultured overnight under conditions of 37° C. and 5% CO₂, treated with TrypLE Express (Thermo Fisher Scientific Inc.), and thereafter, a cell suspension was prepared. […] Thereafter, the cells were suspended by the addition of the anti-CDH6 monoclonal antibody (clone No: rG019), which had been prepared in Example 1)-7, or rat IgG control (R&D Systems, Inc.) (final concentration: 20 nM). The cells were left standing at 4° C. for 1 hour. The cells were washed twice with PBS supplemented with 5% FBS, and then suspended by the addition of Anti-Rat IgG (whole molecule)-FITC antibody produced in rabbit (Sigma-Aldrich Co. LLC) that had been 50-fold diluted with PBS supplemented with 5% FBS. The cells were left standing at 4° C. for 1 hour. The cells were washed twice with PBS supplemented with 5% FBS, followed by detection using a flow cytometer (Canto II; BD Biosciences). The data was analyzed using FlowJo (TreeStar, Inc.). In the histograms of FIGS. 2-1 to 2-2, the abscissa depicts FITC fluorescence intensity indicating the amount of the antibody bound, and the ordinate depicts cell count. […] Fluorescence intensity is enhanced when the antibody binds to full-length hCDH6 or each EC domain deletion mutant on the surface of cells.
Background: Flow cytometry measures light scatter and fluorescence of single cells or particles in a stream.

For assay [2], the target named is T2, Recombinant Human CDH6 Fc His chimera (R&D Systems, Inc.) (human, UniProt P55285 54-615).
T2 construct: Bought reagent; Captured on the chip by an anti-His antibody; also called the antigen; not shown: Fc portion of the bought chimera; His tag of the bought chimera
T2 sequence: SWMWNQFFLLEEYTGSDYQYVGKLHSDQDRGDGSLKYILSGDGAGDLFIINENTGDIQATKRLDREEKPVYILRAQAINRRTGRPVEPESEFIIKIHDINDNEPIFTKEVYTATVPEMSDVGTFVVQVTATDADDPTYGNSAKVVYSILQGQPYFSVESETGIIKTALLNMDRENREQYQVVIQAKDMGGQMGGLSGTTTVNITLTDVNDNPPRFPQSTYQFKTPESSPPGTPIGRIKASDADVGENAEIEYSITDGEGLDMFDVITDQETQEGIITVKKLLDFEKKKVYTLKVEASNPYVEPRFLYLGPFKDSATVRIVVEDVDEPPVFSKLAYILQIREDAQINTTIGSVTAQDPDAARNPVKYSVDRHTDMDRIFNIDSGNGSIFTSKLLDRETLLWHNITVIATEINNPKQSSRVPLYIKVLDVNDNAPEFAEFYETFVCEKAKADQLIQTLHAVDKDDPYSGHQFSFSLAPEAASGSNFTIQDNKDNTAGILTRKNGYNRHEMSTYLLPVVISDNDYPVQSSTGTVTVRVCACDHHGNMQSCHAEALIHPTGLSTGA
The assay can be described thus: SPR (Biacore T200), antigen captured by immobilized anti-His antibody, antibody as analyte, steady state affinity model. Here is the method:
The dissociation constant between the antibody and the antigen (Recombinant Human CDH6 Fc His chimera, R&D Systems, Inc.) was measured by using Biacore T200 (GE Healthcare Biosciences Corp.), according to a capture method, which comprises capturing the antigen as a ligand with the immobilized anti-His antibody and then measuring the dissociation constant using an antibody as an analyte. Approximately 1000 RU of the anti-histidine antibody (His capture kit, GE Healthcare Biosciences Corp.) was covalently bound to sensor chip CM5 (GE Healthcare Biosciences Corp.) by the amine coupling method. The antibody was also immobilized onto reference cells in the same manner as above. HBS-P+(10 mM HEPES pH 7.4, 0.15 M NaCl, 0.05% Surfactant P20) supplemented with 1 mM CaCl₂ was used as a running buffer. The antigen was added onto the anti-histidine antibody-immobilized chip for 60 seconds, and a dilution series solution (0.391 to 100 nM) of the antibody was then added at a flow rate of 30 μl/min for 300 seconds. Subsequently, the dissociation phase was monitored for 600 seconds. As a regeneration solution, a glycine solution (pH 1.5) supplemented with 5 M MgCl₂ was added twice at a flow rate of 10 μl/min for 30 seconds. A Steady State Affinity model in analysis software (BIAevaluation software, version 4.1) was used in data analysis, and the dissociation constant (KD) was calculated.
On the technique in general: Surface plasmon resonance follows binding to a sensor surface in real time, without labels.

B1: rat anti-CDH6 monoclonal antibody rG019 (antibody, IgG2b, V domains shown)
VH: QVQLQQSGAELVKPGSSVKISCKASGYTFTRNFMHWIKQQPGNGLEWIGWIYCGDGETEYNQKFNGKATLTADRSSSTAYMELSRLTSEDSAVYFCARGVYGGFAGGYFDFWGQGVMVTVSS
VL: DIQMTQSPSLLSASVGDRVTLNCKASQNIYKNLAWYQQKLGEGPKLLIYDANTLQTGIPSRFSGSGSGSDFTLTISSLQPEDVATYFCQQYYSGWAFGGVTNLELKRA
notes: Rat antibody purified from hybridoma supernatant; also called rG019 antibody; clone rG019
B1: the binding result in assay [1] is “no binding (tested: 20 nM)”.

B2: humanized anti-CDH6 antibody H02L02 (antibody, human IgG1, kappa, V domains shown)
VH: EVQLVQSGAEVKKPGASVKVSCKASGYTFTRNFMHWVRQAPGQGLEWMGWIYPGDGETEYNQKFQGRVTITADRSTSTAYMELSSLRSEDTAVYFCARGVYGGFAGGYFDFWGQGTLVTVSS
VL: DIQMTQSPSSLSASVGDRVTITCKASQNIYKNLAWYQQKPGKAPKLLIYDANTLQTGVPSRFSGSGSGSDFTLTISSLQPEDFATYFCQQYYSGWAFGQGTKVEIKR
notes: hH02 heavy chain and hL02 light chain, human IgG1/kappa; also called H02L02 antibody; humanized hG019
As a reminder, the Kd is a measure of binding affinity in units of concentration. B2: the Kd in assay [2] worked out at 1.1 nM.

B3: humanized anti-CDH6 antibody H04L02 (antibody, human IgG1, kappa, V domains shown)
VH: QVQLVQSGAEVKKPGASVKVSCKASGYTFTRNFMHWIRQAPGQGLEWMGWIYPGDGETEYAQKFQGRVTLTADRSTSTAYMELSSLRSEDTAVYYCARGVYGGFAGGYFDFWGQGTLVTVSS
VL: DIQMTQSPSSLSASVGDRVTITCKASQNIYKNLAWYQQKPGKAPKLLIYDANTLQTGVPSRFSGSGSGSDFTLTISSLQPEDFATYFCQQYYSGWAFGQGTKVEIKR
notes: hH04 heavy chain and hL02 light chain, human IgG1/kappa; also called H04L02 antibody; humanized hG019
On to B3, for which the Kd in assay [2] worked out at 1.1 nM.

B4: humanized anti-CDH6 antibody H01L02 (antibody, human IgG1, kappa)
heavy: not shown
light: DIQMTQSPSSLSASVGDRVTITCKASQNIYKNLAWYQQKPGKAPKLLIYDANTLQTGVPSRFSGSGSGSDFTLTISSLQPEDFATYFCQQYYSGWAFGQGTKVEIKRTVAAPSVFIFPPSDEQLKSGTASVVCLLNNFYPREAKVQWKVDNALQSGNSQESVTEQDSKDSTYSLSSTLTLSKADYEKHKVYACEVTHQGLSSPVTKSFNRGEC
notes: hH01 heavy chain and hL02 light chain, human IgG1/kappa; also called H01L02 antibody; humanized hG019
For the molecule B4, the Kd in assay [2] is 1.5 nM.

B5: humanized anti-CDH6 antibody H02L03 (antibody, human IgG1, kappa, V domains shown)
VH: EVQLVQSGAEVKKPGASVKVSCKASGYTFTRNFMHWVRQAPGQGLEWMGWIYPGDGETEYNQKFQGRVTITADRSTSTAYMELSSLRSEDTAVYFCARGVYGGFAGGYFDFWGQGTLVTVSS
VL: DIQMTQSPSSLSASVGDRVTITCKASQNIYKNLAWYQQKLGEGPKLLIYDANTLQTGVPSRFSGSGSGTDFTLTISSLQPEDFATYYCQQYYSGWAFGQGTKVEIKR
notes: hH02 heavy chain and hL03 light chain, human IgG1/kappa; also called H02L03 antibody; humanized hG019
For the molecule B5, the Kd in assay [2] amounted to 1.4 nM.

For the origin of these results see patent US20220016257A1 (Daiichi Sankyo, published 2022).
